According to patent US20200087373A1 (UNIVERSITY OF COPENHAGEN, published 2020):
Ends that are not written are not given here. * marks the point of attachment. C16 diacid = O=C(O)CCCCCCCCCCCCCCC(=O)*

T1: human GIP receptor (human, UniProt P48546 22-466)
T1 sequence (looked up): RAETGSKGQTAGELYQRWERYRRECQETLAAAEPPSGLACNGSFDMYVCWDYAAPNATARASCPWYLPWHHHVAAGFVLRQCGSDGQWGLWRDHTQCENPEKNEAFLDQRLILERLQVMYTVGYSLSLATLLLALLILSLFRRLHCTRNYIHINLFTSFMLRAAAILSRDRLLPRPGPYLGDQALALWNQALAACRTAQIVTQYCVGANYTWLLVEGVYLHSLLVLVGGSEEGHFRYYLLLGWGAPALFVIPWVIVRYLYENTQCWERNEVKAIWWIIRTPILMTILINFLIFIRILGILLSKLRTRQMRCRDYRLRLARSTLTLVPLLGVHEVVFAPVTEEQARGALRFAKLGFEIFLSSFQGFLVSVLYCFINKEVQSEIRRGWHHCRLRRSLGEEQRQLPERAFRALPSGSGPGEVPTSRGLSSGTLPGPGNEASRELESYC

B1: AT298 [hGIP(3-30)NH2[I7K]-C16diacid/7] (peptide)
peptide: EGTFK(C16 diacid)SDYSIAMDKIHQQDFVNWLLAQK-NH2
modifications: N-terminus assumed
SMILES: CC[C@H](C)[C@H](NC(=O)[C@H](CO)NC(=O)[C@H](Cc1ccc(O)cc1)NC(=O)[C@H](CC(=O)O)NC(=O)[C@H](CO)NC(=O)[C@H](CCCCNC(=O)CCCCCCCCCCCCCCC(=O)O)NC(=O)[C@H](Cc1ccccc1)NC(=O)[C@@H](NC(=O)CNC(=O)[C@@H](N)CCC(=O)O)[C@@H](C)O)C(=O)N[C@@H](C)C(=O)N[C@@H](CCSC)C(=O)N[C@@H](CC(=O)O)C(=O)N[C@@H](CCCCN)C(=O)N[C@H](C(=O)N[C@@H](Cc1c[nH]cn1)C(=O)N[C@@H](CCC(N)=O)C(=O)N[C@@H](CCC(N)=O)C(=O)N[C@@H](CC(=O)O)C(=O)N[C@@H](Cc1ccccc1)C(=O)N[C@H](C(=O)N[C@@H](CC(N)=O)C(=O)N[C@@H](Cc1c[nH]c2ccccc12)C(=O)N[C@@H](CC(C)C)C(=O)N[C@@H](CC(C)C)C(=O)N[C@@H](C)C(=O)N[C@@H](CCC(N)=O)C(=O)N[C@@H](CCCCN)C(N)=O)C(C)C)[C@@H](C)CC
B2: AT297 [hGIP(3-30)NH2[F6K]-C16diacid/6] (peptide)
peptide: EGTKISDYSIAMDKIHQQDFVNWLLAQK
modifications: C16-diacid (1,16-hexadecanedioic acid) on Lys 6 (GIP numbering); C-terminal amide
B3: AT296 [hGIP(3-30)NH2[T5K]-C16diacid/5] (peptide)
peptide: EGK(C16 diacid)FISDYSIAMDKIHQQDFVNWLLAQK-NH2
modifications: N-terminus assumed
SMILES: CC[C@H](C)[C@H](NC(=O)[C@H](CO)NC(=O)[C@H](Cc1ccc(O)cc1)NC(=O)[C@H](CC(=O)O)NC(=O)[C@H](CO)NC(=O)[C@@H](NC(=O)[C@H](Cc1ccccc1)NC(=O)[C@H](CCCCNC(=O)CCCCCCCCCCCCCCC(=O)O)NC(=O)CNC(=O)[C@@H](N)CCC(=O)O)[C@@H](C)CC)C(=O)N[C@@H](C)C(=O)N[C@@H](CCSC)C(=O)N[C@@H](CC(=O)O)C(=O)N[C@@H](CCCCN)C(=O)N[C@H](C(=O)N[C@@H](Cc1c[nH]cn1)C(=O)N[C@@H](CCC(N)=O)C(=O)N[C@@H](CCC(N)=O)C(=O)N[C@@H](CC(=O)O)C(=O)N[C@@H](Cc1ccccc1)C(=O)N[C@H](C(=O)N[C@@H](CC(N)=O)C(=O)N[C@@H](Cc1c[nH]c2ccccc12)C(=O)N[C@@H](CC(C)C)C(=O)N[C@@H](CC(C)C)C(=O)N[C@@H](C)C(=O)N[C@@H](CCC(N)=O)C(=O)N[C@@H](CCCCN)C(N)=O)C(C)C)[C@@H](C)CC
B4: AT295 [hGIP(3-30)NH2[G4K]-C16diacid/4] (peptide)
peptide: EK(C16 diacid)TFISDYSIAMDKIHQQDFVNWLLAQK-NH2
modifications: N-terminus assumed
SMILES: CC[C@H](C)[C@H](NC(=O)[C@H](CO)NC(=O)[C@H](Cc1ccc(O)cc1)NC(=O)[C@H](CC(=O)O)NC(=O)[C@H](CO)NC(=O)[C@@H](NC(=O)[C@H](Cc1ccccc1)NC(=O)[C@@H](NC(=O)[C@H](CCCCNC(=O)CCCCCCCCCCCCCCC(=O)O)NC(=O)[C@@H](N)CCC(=O)O)[C@@H](C)O)[C@@H](C)CC)C(=O)N[C@@H](C)C(=O)N[C@@H](CCSC)C(=O)N[C@@H](CC(=O)O)C(=O)N[C@@H](CCCCN)C(=O)N[C@H](C(=O)N[C@@H](Cc1c[nH]cn1)C(=O)N[C@@H](CCC(N)=O)C(=O)N[C@@H](CCC(N)=O)C(=O)N[C@@H](CC(=O)O)C(=O)N[C@@H](Cc1ccccc1)C(=O)N[C@H](C(=O)N[C@@H](CC(N)=O)C(=O)N[C@@H](Cc1c[nH]c2ccccc12)C(=O)N[C@@H](CC(C)C)C(=O)N[C@@H](CC(C)C)C(=O)N[C@@H](C)C(=O)N[C@@H](CCC(N)=O)C(=O)N[C@@H](CCCCN)C(N)=O)C(C)C)[C@@H](C)CC

Target: T1, human GIP receptor
Assay: cell-based or functional assay

Row | Binder | cAMP antagonism, log (IC50) [log M] | cAMP antagonism, nM (IC50) [nM] | cAMP agonism, EC50 (log) [log M] | cAMP agonism, Emax [%] | cAMP agonism, nM (EC50) [nM]
1 | B1 | -7.5 | 33 |  |  | 
2 | B2 | -6.2 | 603 | -7 | 19 | 9
3 | B3 | -7.8 | 14 | -8.6 | 6.7 | 2.6
4 | B4 | -8.1 | 9.5 | -8.6 | 78.6 | 2.6
